Assays:
[1] = biological target: Arpp21 1-330 (UniProt Q9DCB4 1-330); assay: ITC; 25 C, TCEP; 20 mM sodium phosphate pH 6.5, 300 mM NaCl, 2 mM DTT (TCEP instead of DTT for ITC); NMR 298 K, 10% D2O, 50 uM protein; ITC 25 C, 20 uM protein, 200 uM RNA in syringe; settings: protein: recombinant; tags: His-GB1 tag, TEV-cleaved
[2] = biological target: Arpp21 61-260 (UniProt Q9DCB4 61-260); assay: ITC; 25 C, TCEP; panel label, Methods and text say 61-260, legend says 130-260; 20 mM sodium phosphate pH 6.5, 300 mM NaCl, 2 mM DTT (TCEP instead of DTT for ITC); NMR 298 K, 10% D2O, 50 uM protein; ITC 25 C, 20 uM protein, 200 uM RNA in syringe; settings: protein: recombinant; tags: His-GB1 tag, TEV-cleaved
Sequence of Arpp21 61-260 (Q9DCB4 61-260): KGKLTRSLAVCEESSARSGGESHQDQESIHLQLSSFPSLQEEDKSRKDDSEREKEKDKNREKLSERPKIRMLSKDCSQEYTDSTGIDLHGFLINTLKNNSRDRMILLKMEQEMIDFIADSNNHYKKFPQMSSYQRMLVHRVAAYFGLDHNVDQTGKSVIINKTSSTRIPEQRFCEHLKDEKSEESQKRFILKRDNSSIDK

Sequence of Arpp21 1-330 (Q9DCB4 1-330): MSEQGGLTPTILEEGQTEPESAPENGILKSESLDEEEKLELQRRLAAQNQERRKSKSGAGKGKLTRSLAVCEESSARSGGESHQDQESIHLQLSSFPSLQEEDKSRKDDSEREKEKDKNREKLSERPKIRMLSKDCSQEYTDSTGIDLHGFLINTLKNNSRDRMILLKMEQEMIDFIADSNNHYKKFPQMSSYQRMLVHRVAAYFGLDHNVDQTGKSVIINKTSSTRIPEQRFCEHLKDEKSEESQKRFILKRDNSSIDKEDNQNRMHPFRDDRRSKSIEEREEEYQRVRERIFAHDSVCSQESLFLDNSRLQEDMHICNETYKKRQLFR

UUUUUUUUU (ssRNA) [U9 RNA]
Kd [1]: 4.7 µM | Kd [2]: 4.8 µM

From paper PMC10928157, “The thymocyte-specific RNA-binding protein Arpp21 provides TCR repertoire diversity by binding to the 3’-UTR and promoting Rag1 mRNA expression”
